{"source": "patent US20200325239A1", "about": "“Modulation of Aminopeptidase N/CD13 and Rheumatoid Arthritis” (THE REGENTS OF THE UNIVERSITY OF MICHIGAN, priority 2016, published 2020)", "key": {"[1]": {"tested_on": "Human dermal microvascular endothelial cell (HMVEC)", "assay": "HMVEC tube formation on growth factor-reduced Matrigel", "type": "cell-based", "conditions": "GFR Matrigel", "experimental": "FIG. 11. Human dermal microvascular endothelial cell (HMVEC) tube formation was assessed on growth factor-reduced Matrigel (GFR, BD Biosciences) with CD13. […] Arrows indicate the number of tubes formed in each group. n=number of replicates in each group. The number of tubes formed was quantitated by an observer blinded to the experimental groups.\nHMVEC Matrigel tube formation assay. After finding that CD13 is chemotactic for HMVECs, the role of CD13 in RA is examined by performing HMVEC capillary morphogenesis assay on Matrigel tube with sham- or CD13-depleted RA SFs. Growth factor-reduced Matrigel (GFR, BD Biosciences) is used to perform this assay (56-58). CD13- or sham-depleted RA SFs are used as test groups (58). The chambers are incubated for 16 to 18 hours at 37° C. in a 5% CO2 humidified atmosphere. Cells are fixed and stained with Diff-Quik. The number of tubes formed is quantitated by an observer blinded to the experimental groups. bFGF (30 nM) and phosphate buffered saline (PBS) serve as positive and negative controls, respectively."}, "[2]": {"tested_on": "C57Bl/6 mice", "assay": "Matrigel plug angiogenesis assay in vivo (hemoglobin)", "parameters": "species or system mouse", "conditions": "subcutaneous Matrigel 500 μl, plugs harvested after 7 days", "experimental": "FIG. 13. To test the effect of CD13 in angiogenesis in vivo, Matrigel plug assays were performed using C57Bl/6 mice. Each mouse was given a subcutaneous injection of sterile GFR Matrigel (500 μl/injection) containing either CD13 or PBS, a negative control. Matrigel plugs were harvested after 7 days. Hemoglobin (Hb) was determined. […] Results are represented as the mean+SEM and *p<0.05 was considered significant. n=number of mice per group.\nThis assay is performed as described previously (56-58). RA SFs sham- or CD13-depleted (50 μl in 500 μl of Matrigel) are injected subcutaneously in C57Bl/6 mice. After 7 days, the mice are euthanized and the Matrigel plugs are removed, weighed, and processed for hemoglobin (Hb) measurement or immunofluorescence. Hemoglobin (Hb) concentration is determined either by the Drabkin method using a Drabkin's reagent kit (Sigma) or with the 3,3,5,5-tetramethylbenzidine substrate system (Sigma) (56, 61, 62). Hb values are normalized to plug weight."}, "[3]": {"tested_on": "Human dermal microvascular endothelial cell (HMVEC)", "assay": "HMVEC chemotaxis in modified Boyden chamber", "type": "cell-based", "conditions": "p<0.05 vs PBS; dose-dependent", "experimental": "FIG. 10. Human dermal microvascular endothelial cell (HMVEC) chemotaxis was performed in a modified Boyden chamber using CD13 at various concentrations. […] CD13 induced HMVEC migration from 500-2000 ng/ml (p<0.05). Data represent the mean of 3 individual experiments±SEM. Three high-power fields (hpf) (×400) were counted in each replicate well and results were expressed as cells per hpf. PBS served as negative control."}, "[4]": {"tested_on": "C57Bl/6 mice", "assay": "Mouse model of inflammatory arthritis, intra-articular injection into knee joints", "type": "in vivo", "conditions": "500 ng in 20 μl of PBS, 24 and 48 hours", "experimental": "To use the mouse model of inflammatory arthritis, female C57Bl/6 mice (8-10 weeks old, Harlan Laboratories) are anesthetized with ketamine (80-120 mg/kg body weight) and xylazine (5-10 mg/kg body weight) intraperitoneally, and the knee circumference is determined by caliper measurements before intra-articular injection, as described (67). The anesthetized mice receive 20 μl/knee joint of PBS and recombinant mouse CD13 (500 ng in 20 μl of PBS). Circumference measurements are obtained in a blinded manner. Mice are euthanized after 24 and 48 hours of the intraarticular injection. Mouse knees are measured before euthanasia. Hematoxylin and eosin (H&E) staining of the mouse knee cryosections is performed to determine the inflammatory response of CD13 (67). Immunofluorescence staining is also performed on cryosections using rat anti-mouse F4/80 antibody (GenTex) to detect MNs/macrophages. The number of F4/80-positive MNs/macrophages is calculated as the average number of cells in 3 fields (400X)."}, "[5]": {"tested_on": "RA FLS", "assay": "FLS growth assay (Essen IncuCyte, percent confluence)", "type": "cell-based, human", "conditions": "proliferation and migration", "experimental": "FIG. 5. […] FLS were seeded on 96-well plates overnight. An Essen Incucyte system was used for both growth (A) and migration (B) assays. Growth was calculated as the difference in percent confluence from time 0. Migration was measured in a scratch-wound assay using relative wound density. All data are expressed as a ratio to untreated FLS of the same cell line. mean±SEM n≥4 (*p≤0.05).\nRA FLS were seeded on Essen Image Lock 96-well plates (Essen Bioscience, Ann Arbor, Mich.) overnight at either 3,000 cells/well for growth or 30,000 cells/well for migration. For growth, the 20% FBS CMRL media was removed and cells were washed 1× with PBS. 100 μl of medium alone (control) or medium containing anti-CD3 (25 or 50 ng/ml, OKT3, used as a non-reactive isotype control antibody in this experiment), anti-CD13 1D7 or WM15 (Biolegend, San Diego, Calif.) (25 or 50 ng/ml), or CD13 chemical inhibitors actinonin (Sigma-Aldrich, St. Louis, Mo.) or bestatin (Sigma-Aldrich, St. Louis, Mo.) (10 μM and 50 μM, respectively) was added to the wells. Images and confluence data were collected using an Essen IncuCyte (Essen Bioscience, Ann Arbor, Mich.). For the scratch-wound migration assay, wounds were made via the Essen scratch-wound tool in the seeded 96-well plate. Plates were then washed 2× with PBS and medium was added similar to the growth plates. Data were collected and the confluence or relative wound density calculated by the Essen IncuCyte."}, "[6]": {"tested_on": "normal human MN", "assay": "Normal human MN chemotaxis in modified Boyden chambers", "type": "cell-based", "conditions": "PBS negative control", "experimental": "FIG. 14. To evaluate the contribution of CD13 to RA inflammation by recruiting MNs, normal human MN chemotaxis assays were performed in modified Boyden chambers. […] PBS served as negative control. n=number of experiments. The results are expressed as mean+SEM and *p<0.05 was considered significant. n=number of replicates."}}, "data": [{"molecule": "CD13: recombinant Aminopeptidase N/CD13 used as stimulus; recombinant mouse CD13 planned for knee injection (protein, UniProt P15144 2-967, looked up) Aminopeptidase N: AKGFYISKSLGILGILLGVAAVCTIIALSVVYSQEKNKNANSSPVASTTPSASATTNPASATTLDQSKAWNRYRLPNTLKPDSYRVTLRPYLTPNDRGLYVFKGSSTVRFTCKEATDVIIIHSKKLNYTLSQGHRVVLRGVGGSQPPDIDKTELVEPTEYLVVHLKGSLVKDSQYEMDSEFEGELADDLAGFYRSEYMEGNVRKVVATTQMQAADARKSFPCFDEPAMKAEFNITLIHPKDLTALSNMLPKGPSTPLPEDPNWNVTEFHTTPKMSTYLLAFIVSEFDYVEKQASNGVLIRIWARPSAIAAGHGDYALNVTGPILNFFAGHYDTPYPLPKSDQIGLPDFNAGAMENWGLVTYRENSLLFDPLSSSSSNKERVVTVIAHELAHQWFGNLVTIEWWNDLWLNEGFASYVEYLGADYAEPTWNLKDLMVLNDVYRVMAVDALASSHPLSTPASEINTPAQISELFDAISYSKGASVLRMLSSFLSEDVFKQGLASYLHTFAYQNTIYLNLWDHLQEAVNNRSIQLPTTVRDIMNRWTLQMGFPVITVDTSTGTLSQEHFLLDPDSNVTRPSEFNYVWIVPITSIRDGRQQQDYWLIDVRAQNDLFSTSGNEWVLLNLNVTGYYRVNYDEENWRKIQTQLQRDHSAIPVINRAQIINDAFNLASAHKVPVTLALNNTLFLIEERQYMPWEAALSSLSYFKLMFDRSEVYGPMKNYLKKQVTPLFIHFRNNTNNWREIPENLMDQYSEVNAISTACSNGVPECEEMVSGLFKQWMENPNNNPIHPNLRSTVYCNAIAQGGEEEWDFAWEQFRNATLVNEADKLRAALACSKELWILNRYLSYTLNPDLIRKQDATSTIISITNNVIGQGLVWDFVQSNWKKLFNDYGGGSFSFSNLIQAVTRRFSTEYELQQLEQFKKDNEETGFGSGTRALEQALEKTKANIKWVKENKEVVLQWFTENSK", "values": [{"measurement": "EC tubes formed compared to PBS", "setting": "[1]", "result": "almost two-fold more numerous"}, {"measurement": "hemoglobin (Hb) in Matrigel plugs compared to PBS", "setting": "[2]", "result": "more than a four-fold increase in Hb"}, {"measurement": "concentrations at which HMVEC migration was induced", "setting": "[3]", "result": "500 to 2000", "unit": "ng/mL"}, {"measurement": "increase in mouse knee circumference compared to PBS", "setting": "[4]", "result": "2-3 fold"}, {"measurement": "effect of additional rhCD13 on RA FLS proliferation and migration", "setting": "[5]", "result": "did not consistently affect the RA FLS"}, {"measurement": "MN migration", "setting": "[6]", "result": "concentration-dependent increase in MN migration"}]}]}
